Results published in patent publication US7173005 (dated 2007).
Values belong to the binder of their own block, whether it stands above or below them.

Columns and labels:
[1] = target: T1, human IGF-1 receptor (IGF-1R) (human, UniProt P08069); assay: competition, TR-FRET vs b-20E2
[2] = target: T1, human IGF-1 receptor (IGF-1R); assay: competition, TR-FRET vs b-20E2; remark: listed apart in the source
[3] = target: T1, human IGF-1 receptor (IGF-1R); assay: competition
[4] = target: T1, human IGF-1 receptor (IGF-1R); assay: competition, TRF vs b-rhIGF-1
[5] = target: human insulin receptor (HIR) (human, UniProt P06213); assay: competition
[6] = target: T1, human IGF-1 receptor (IGF-1R); assay: competition, AlphaScreen vs b-hIGF-1

- IC50 [1]: 0.00088 µM
- IC50 [2]: 0.01 µM
B1: C1 (D112) (peptide)
chain: CWARPCGDAANFYDWFVQQAS

- IC50 [1]: 6.29 µM
B2: S173 (peptide)
chain: LDALDRLMRYFEERPSL

- Ki [3]: 0.036 µM
- IC50 [4]: 0.0357 µM
B3: D815-6aa-RP9 (peptide)
chain: WLDQERAWLWCEISGRGCLSGGSGGSGSLDESFYDWFERQLGKK

- Ki [3]: 1.45 µM
- IC50 [4]: 1.45 µM
- IC50 [2]: 0.178 µM
B4: S326 / G33 (peptide)
chain: GIISQSCPESFYDWFAGQVSDPWWCW

- IC50 [1]: 31 µM
B5: A6 (peptide)
chain: SAKNFYDWFVKK

- Kd [5]: 5 µM
B6: S246 (peptide)
chain 1: ACAWPTYWNCGGGGX
chain 2: FHENFYDWFVRQVSKKX
modifications: listing feature

- IC50 [2]: 0.706 µM
B7: RP15 (peptide)
chain: SQAGSAFYAWFDQVLRTV

- Kd [5]: 2.4 µM
B8: S118 (peptide)
chain: SDGFYNAIELLS

- IC50 [6]: 0.19 µM
B9: S327 / RP6KK (peptide)
chain: TFYSCLASLLTGTPQPNRGPWERCRKK

- Kd [5]: 2 µM
B10: S242 (peptide)
chain: ANFYDWFVAELG

- IC50 [2]: 8.1 µM
B11: RP4 (peptide)
chain: PPWGARFYDAIEQLVFDNL

- Ki [3]: 0.417 µM
- IC50 [4]: 0.417 µM
- IC50 [1]: 0.0393 µM
- IC50 [2]: 0.033 µM
B12: S386 / RP9 without terminal lysines (peptide)
chain: GSLDESFYDWFERQLG

- IC50 [6]: 0.009 µM
B13: RP33-IGF (peptide)
chain: SFYSCLESLVNGPAEKSRGQWDGCRKK

- Ki [3]: 0.003 µM
- IC50 [4]: 0.00322 µM
B14: D815-12aa-RP9 (peptide)
chain: WLDQERAWLWCEISGRGCLSGGSGGSGGSGGSGSLDESFYDWFERQLGKK

- Kd [5]: 2 µM
B15: S120 (peptide)
chain: HDPFYSMMKSLLK

- IC50 [1]: 0.104 µM
- IC50 [2]: 0.1 µM
B16: 20E2 (D118) (peptide)
chain: DYKDFYDAIDQLVRGSARAGGTRD

- IC50 [6]: 1.6 µM
B17: RP54 (peptide)
chain: EGSSINLLARAQIVELALEMGVQEE

- Ki [3]: 0.624 µM
- IC50 [4]: 0.624 µM
B18: D815-6aa-G33 (protein)
chain: WLDQERAWLWCEISGRGCLSGGSGGSGIISQSCPESFYDWFAGQVSDPWWCW

- Kd [5]: 1.6 µM
B19: S255 (peptide)
chain 1: SDGFYNAIELLSGGGX
chain 2: SDGFYNAIELLSGGGX
modifications: listing feature

- IC50 [1]: 11.3 µM
B20: S263 / D8B12 (peptide)
chain: WLEQERAWIWCEIQGSGCRA

- IC50 [2]: 0.961 µM
B21: RP16 (peptide)
chain: VMDARDDPFYHKLSELVT

- Kd [5]: 0.0024 µM
B22: S456 (peptide)
chain 1: XGSLDESFYDWFERQLGKK
chain 2: XKEWLDQEWAWVQCEVYGRGCPSEE
modifications: not fully specified; listing feature

- Ki [3]: 4.08 µM
- IC50 [4]: 4.08 µM
B23: rD815 (peptide)
chain: WLDQERAWLWCEISGRGCLS

- IC50 [1]: 0.46 µM
B24: H2C (D117) (peptide)
chain: FHENFYDWFVQRVSKK

- Kd [5]: 3.8 µM
B25: S168 (peptide)
chain: AAAAFYDWFAAAAAKK

- Kd [5]: 9.3 µM
B26: S122 (peptide)
chain: HPTSKEIYAKLLK

- Kd [5]: 2.9 µM
B27: S171 (peptide)
chain: CGFHENFYDWFVRQVSKK
